# Reference: patent US12578343B2, “Selective ACKR3 modulators and uses thereof” (Luxembourg Institute of Health (LIH), priority 2019, dated 2026)
# Tests used:
# [1] = molecular target: T1, CXCR4 (Homo sapiens, UniProt P61073); assay: Dynamic mass redistribution (DMR), U87 cells expressing CXCR4; type: cell-based; settings: 200 nM
# T1 construct: expressed in transfected cells; pcDNA3.1 transient for DMR
# Experimental: 1.5. Label-Free Dynamic Mass Redistribution (DMR) Assay
# Dynamic mass redistribution (DMR) experiments were conducted using the Corning Epic (Corning) biosensor system as previously described in Schröder, R. et al. Deconvolution of complex G protein-coupled receptor signaling in live cells using dynamic mass redistribution measurements. Nat Biotechnol 28, 943-949 (2010) and Schröder, R. et al. Applying label-free dynamic mass redistribution technology to frame signaling of G protein-coupled receptors noninvasively in living cells. Nat Protoc. 6(11): 1748-1760 (2011). In brief, 6×10^5 U87 cells were seeded in 6-cm dishes. 24 hours later cells were transfected with pcDNA3.1-based expression plasmids coding for the respective chemokine (ACKR3, CXCR4) or opioid (KOR, NOP) receptors using polyethylenimine (PEI) reagent (Polysciences). 24 hours after transfection 1×10^4 cells per well were transferred to a 384-well Epic biosensor plate and incubated (37° C., 5% CO2) overnight. Cells were then washed twice with Hanks' balanced salt solution (HBSS) (Life Technologies) containing 20 mM HEPES (Life Technologies) and subsequently incubated in the DMR-reader for 1.5 hours to achieve temperature equilibration (37° C.). […] Alterations of ligand-induced DMR were monitored for at least 3000 seconds. Raw data were processed and analysed using GraphPad Prism 7.05 (GraphPad Inc).
# [2] = molecular target: T1, CXCR4; assay: HTRF ERK1/2 phosphorylation, U87 cells stably expressing CXCR4; type: cell-based; settings: between 2 and 120 minutes after stimulation
# Experimental: 1.6 Homogeneous Time-Resolved Fluorescence (HTRF)-Based Extracellular Signal Regulated Kinases 1 and 2 (ERK1/2) Phosphorylation Assays
# Homogeneous Time-Resolved Fluorescence (HTRF)-based phospho-ERK1/2 and total-ERK1/2 assays were performed using phospho-ERK1/2 (Thr202/Tyr204) and total-ERK1/2 cellular kits (Cisbio International). In short, for quantification of total and phosphorylated ERK1/2 protein, U87 cells stably expressing (or not) ACKR3 or CXCR4 were seeded at a density of 3.5×10^4 cells per well into 96-well poly-D-lysine (PDL)-coated microtiter plates (Sigma-Aldrich). After overnight incubation, cells were starved for 4 hours at 37° C. in serum-free medium. Cells were then stimulated for the indicated time intervals with chemokine or opioid ligands, respectively, before termination by replacement of supernatants with lysis buffer followed by 1.5 hours incubation on an orbital shaker. […] D2-labeled anti-total-ERK1/2 and Eu^3+-Cryptate-labelled anti-total-ERK1/2 antibodies were added for quantification of total-ERK1/2 abundance. Following an incubation time of at least 2 hours (phospho-ERK1/2) or 24 hours (total-ERK1/2), time-resolved FRET signals were measured using the Mithras LB 940 multimode reader (Berthold Technologies) equipped with 320 nm excitation filter and 620 nm (donor) and 665 nm (acceptor) emission filters.
# [3] = system: smNPCs; assay: Uptake of labelled dynorphin A (1-13) by smNPCs, imaging flow cytometry; type: cell-based, human; settings: 250 nM, 40 minutes at 37° C.
# Experimental: U87 cells derived from human brain glioblastoma were obtained through the NIH AIDS Reagent Program from Dr. Deng and Dr. Littman. U87 stably expressing ACKR3 and CXCR4 were generated as previously described in Szpakowska, M. et al. Different contributions of chemokine N-terminal features attest to a different ligand binding mode and a bias towards activation of ACKR3/CXCR7 compared with CXCR4 and CXCR3. Br J Pharmacol 175, 1419-1438 (2018). U87 cells were grown in Dulbecco's modified Eagle medium (DMEM) supplemented with 15% foetal bovine serum and penicillin/streptomycin (100 Units/ml and 100 μg/ml). U87-ACKR3 and U87-CXCR4 were maintained under puromycin (1 μg/ml) selective pressure. smNPCs (small molecule neural precursor cells) derived from a healthy donor (C1-1) whose informed consent was obtained, were grown on Geltrex™-coated surface in N2B27 medium supplemented with 0.5 μM Purmorphamine, 3 μM CHIR 99021 and 150 μM ascorbic acid. N2B27 medium consisted of DMEM/F12 and NeuroBasal medium 50:50 with 0.5% N2 supplement, 1% B27 supplement lacking vitamin A, 1% GlutaMAX and 1% penicilin/streptomycin. Medium was renewed every other day.
# Cells were distributed into 96-well plates (2×10^5 cells/well in Opti-MEM for U87 and U87-ACKR3 and 3×10^5 cells/well in N2B27 medium for smNPCs). […] For comparison of labelled opioid peptide-uptake by ACKR3 or classical opioid receptors, 1.2×10^6 U87 cells were seeded in 10-cm dishes and transfected 48 hours later with 4 μg pcDNA3.1 plasmid encoding ACKR3 or KOR, MOR or NOP. 48 hours post transfection, cells were harvested and treated as described above. Dead cells were excluded using Zombie NIR or Zombie Green viability dye (BioLegend) for FAM-labelled peptides and Cy5-labelled peptides, respectively. Images of 1×10^4 in-focus, living single cells were acquired with an ImageStream MKII imaging flow cytometer (Amnis) using 40× magnification (60× magnification for smNPCs). Samples were analysed using Ideas6.2 software. The number of spots per cell was determined using a mask-based software wizard.
# [4] = molecular target: T2, ACKR3 (Homo sapiens, UniProt P25106); assay: Uptake of fluorescently labelled opioid peptides by ACKR3-expressing U87 cells, imaging flow cytometry; type: cell-based; set-up: expressed in transfected cells; for the receptor comparison in the uptake assay, transient pcDNA3.1); settings: 40 minutes at 37° C.
# Target sequence in this assay (P25106 whole entry): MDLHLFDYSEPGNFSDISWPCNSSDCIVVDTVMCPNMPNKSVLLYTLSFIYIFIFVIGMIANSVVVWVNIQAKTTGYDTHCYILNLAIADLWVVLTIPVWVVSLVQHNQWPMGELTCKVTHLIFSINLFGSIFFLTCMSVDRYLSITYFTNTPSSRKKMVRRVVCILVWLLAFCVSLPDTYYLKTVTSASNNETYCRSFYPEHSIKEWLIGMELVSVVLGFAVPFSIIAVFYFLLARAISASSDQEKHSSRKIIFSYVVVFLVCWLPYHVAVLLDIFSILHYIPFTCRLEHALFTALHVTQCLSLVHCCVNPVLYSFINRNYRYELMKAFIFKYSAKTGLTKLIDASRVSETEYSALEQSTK
# Source text: Visualization of Fluorescently Labelled Opioid Peptides Uptake by Imagestream
# [5] = molecular target: T3, native or CXCR4-expressing U87 cells (Homo sapiens, UniProt P61073); assay: Binding of fluorescently labelled LIH383 to native or CXCR4-expressing cells
# T3 construct: expressed in transfected cells; pcDNA3.1 transient for DMR
# [6] = system: CXCR3; assay: β-arrestin recruitment to CXCR3 (NanoBiT); type: cell-based, human; settings: saturating concentration (3 μM)
# Experimental: (§1) In brief, 1.2×10^6 U87 cells were plated in 10 cm-culture dishes and 48 hours later co-transfected with pNBe vectors encoding GPCRs C-terminally tagged to SmBiT and human β-arrestin-1 or -2 or mini G proteins (mG, engineered GTPase domains of Gα subunits,) N-terminally fused to LgBiT. 48 hours post-transfection cells were harvested, incubated 25 minutes at 37° C. with Nano-Glo Live Cell substrate diluted 200-fold and distributed into white 96-well plates (5×10^4 cells per well). Ligand-induced, β-arrestin and mG recruitment to GPCRs was evaluated with a Mithras LB940 luminometer (Berthold Technologies) for 20 minutes. For concentration-response curves, the signal recorded with a saturating concentration of full agonist for each receptor was set as 100%.
# [7] = molecular target: T4, CX3CR1 (Homo sapiens, UniProt P49238); assay: β-arrestin recruitment to CX3CR1 (NanoBiT); type: cell-based; settings: saturating concentration (3 μM)
# T4 construct: expressed in transfected cells; host or cells: U87 cells, transient co-transfection of pNBe vectors
# T4 sequence (P49238 1-355): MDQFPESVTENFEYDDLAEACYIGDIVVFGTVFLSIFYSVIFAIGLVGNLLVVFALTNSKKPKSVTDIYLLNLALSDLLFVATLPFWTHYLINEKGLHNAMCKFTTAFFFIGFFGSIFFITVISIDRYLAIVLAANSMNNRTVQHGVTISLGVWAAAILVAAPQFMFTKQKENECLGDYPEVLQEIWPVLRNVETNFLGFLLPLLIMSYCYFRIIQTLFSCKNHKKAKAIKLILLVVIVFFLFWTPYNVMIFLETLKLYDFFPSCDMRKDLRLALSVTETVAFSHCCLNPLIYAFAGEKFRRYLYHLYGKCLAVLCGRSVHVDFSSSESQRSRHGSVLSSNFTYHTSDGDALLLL
# Experimental: as §1
# [8] = molecular target: T5, CCR3 (Homo sapiens, UniProt P51677); assay: β-arrestin recruitment to CCR3 (NanoBiT); type: cell-based; settings: saturating concentration (3 μM)
# T5 construct: expressed in transfected cells; host or cells: U87 cells, transient co-transfection of pNBe vectors
# T5 sequence (P51677 1-355): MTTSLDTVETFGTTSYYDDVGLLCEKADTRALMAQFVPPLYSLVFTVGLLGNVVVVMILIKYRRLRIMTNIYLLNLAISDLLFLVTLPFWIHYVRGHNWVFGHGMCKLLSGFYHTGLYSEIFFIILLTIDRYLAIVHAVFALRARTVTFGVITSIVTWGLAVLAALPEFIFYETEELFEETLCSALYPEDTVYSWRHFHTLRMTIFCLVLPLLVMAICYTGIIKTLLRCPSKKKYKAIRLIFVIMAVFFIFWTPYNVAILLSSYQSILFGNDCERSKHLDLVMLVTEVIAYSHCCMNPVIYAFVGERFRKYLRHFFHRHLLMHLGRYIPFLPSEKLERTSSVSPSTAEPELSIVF
# Experimental: as §1
# [9] = molecular target: T2, ACKR3; type: cell-based; set-up: expressed in transfected cells; host or cells: U87 cells, transient co-transfection of pNBe vectors; settings: U87 cells
# Target sequence in this assay (P25106 whole entry): as the sequence (P25106 whole entry) above
# Target sequence in this assay (P49407 whole entry partner): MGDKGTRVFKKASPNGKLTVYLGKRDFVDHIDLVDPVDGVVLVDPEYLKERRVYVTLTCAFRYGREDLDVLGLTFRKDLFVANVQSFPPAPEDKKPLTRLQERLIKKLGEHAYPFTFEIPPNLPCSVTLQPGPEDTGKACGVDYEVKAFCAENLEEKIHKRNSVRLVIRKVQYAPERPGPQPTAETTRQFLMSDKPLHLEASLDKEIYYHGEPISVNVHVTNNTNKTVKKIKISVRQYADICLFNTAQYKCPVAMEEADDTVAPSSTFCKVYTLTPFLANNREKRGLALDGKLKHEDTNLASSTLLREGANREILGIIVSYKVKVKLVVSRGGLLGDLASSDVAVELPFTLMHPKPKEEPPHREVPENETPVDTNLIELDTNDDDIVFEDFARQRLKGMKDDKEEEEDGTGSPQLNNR
# [10] = molecular target: T2, ACKR3; assay: Opioid peptide library screening: β-arrestin-2 recruitment to ACKR3 in U87 cells; type: cell-based; set-up: expressed in transfected cells; host or cells: U87 cells, transient co-transfection of pNBe vectors; settings: 5 μM
# Experimental: as §1
# Target sequence in this assay (P25106 whole entry): as the sequence (P25106 whole entry) above
# Target sequence in this assay (P32121 whole entry partner): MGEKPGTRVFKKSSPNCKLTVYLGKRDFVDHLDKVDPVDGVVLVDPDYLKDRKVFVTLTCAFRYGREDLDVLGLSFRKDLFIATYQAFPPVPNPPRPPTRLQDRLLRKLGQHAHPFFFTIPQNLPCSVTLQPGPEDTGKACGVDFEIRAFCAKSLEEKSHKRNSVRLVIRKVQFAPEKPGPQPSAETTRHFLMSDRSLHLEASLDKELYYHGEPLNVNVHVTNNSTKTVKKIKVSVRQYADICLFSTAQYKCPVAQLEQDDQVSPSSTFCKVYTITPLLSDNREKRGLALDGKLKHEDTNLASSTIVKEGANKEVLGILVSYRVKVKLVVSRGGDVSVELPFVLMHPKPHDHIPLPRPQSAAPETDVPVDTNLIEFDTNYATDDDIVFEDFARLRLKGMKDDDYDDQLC
# [11] = molecular target: KOR (Homo sapiens, UniProt P41145); assay: Receptor cell surface level of KOR by HiBiT technology; type: cell-based; set-up: expressed in transfected cells; host or cells: U87 cells, transient, PEI; settings: bafilomycin A1 1.5 μM, 180-minute stimulation
# Experimental: 1.14 Monitoring of Opioid Peptide-Induced Changes in Receptor Cell Surface Levels
# Determination of receptor surface expression level by NanoLuc complementation assay was performed using the Nano-Glo HiBiT extracellular detection system (Promega) according to manufacturer's protocol. […] Cells were then incubated with HiBiT extracellular reagent, consisting of Nanoluciferase extracellular substrate and LgBiT protein in HiBiT buffer. Light emission from complementation of LgBiT protein with remaining surface receptor-fused HiBiT was determined on a Mithras LB940 plate reader (Berthold Technologies). Signal was normalised to the measurement recorded at t=1 min. Noteworthy the impact of nociceptin and derivatives could not be determined in this assay due to significant LgBiT protein cross-complementation by nociceptin. Where indicated, cells were treated with bafilomycin A1 (1.5 μM in 0.15% DMSO) (Santa Cruz Biotechnology) or 0.15% DMSO for 45 minutes prior ligand stimulation and during ligand stimulation (180 minutes).
# [12] = system: ACKR3; assay: B-arrestin-1 | ACKR3 | EC50 (nM)
# Source text: Table printed on a drawing sheet, FIG. 1 (continued) H
# Head of the field: B-arrestin-1 | ACKR3 | EC50 (nM)
# The patent's description of the figure: FIG. 1 Opioid peptide library screening on ACKR3, hit confirmation and comparison with classical opioid receptors. (A) The ability of 58 compounds, including natural opioid peptides from the four opioid families, variants thereof and small molecule opioid receptor modulators, to induce β-arrestin-2 recruitment to ACKR3, CXCR4 and CXCR3 in U87 cells at a concentration of 5 μM. Positive control chemokines were used at a concentration of 300 nM. Results are expressed as fold change over vehicle-treated cells and presented as mean±S.D of two replicates (B-F) Comparison of potency and efficacy of ACKR3-activating peptides in inducing β-arrestin-1 recruitment to the opioid receptors MOR (B), DOR (C), KOR (D), NOP (E) and ACKR3 (F) in U87 cells. Results are expressed as percentage of indicated agonist response. […] Results from B—H are presented as mean±S.E.M (n ? 3).
# Where the first naming reader finds the target: head: B-arrestin-1 | ACKR3 | EC50 (nM)
# T1 sequence (P61073 whole entry): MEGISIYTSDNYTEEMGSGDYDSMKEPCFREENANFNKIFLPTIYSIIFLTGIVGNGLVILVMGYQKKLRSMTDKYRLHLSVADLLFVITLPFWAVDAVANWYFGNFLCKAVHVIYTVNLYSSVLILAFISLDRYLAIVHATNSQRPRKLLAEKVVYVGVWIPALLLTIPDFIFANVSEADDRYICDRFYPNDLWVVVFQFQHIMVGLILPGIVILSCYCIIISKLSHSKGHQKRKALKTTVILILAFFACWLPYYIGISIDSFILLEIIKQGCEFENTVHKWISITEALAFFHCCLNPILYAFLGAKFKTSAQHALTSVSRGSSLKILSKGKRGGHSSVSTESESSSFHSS
# T3 sequence (P61073 whole entry): as above
# KOR, sequence (P41145 whole entry): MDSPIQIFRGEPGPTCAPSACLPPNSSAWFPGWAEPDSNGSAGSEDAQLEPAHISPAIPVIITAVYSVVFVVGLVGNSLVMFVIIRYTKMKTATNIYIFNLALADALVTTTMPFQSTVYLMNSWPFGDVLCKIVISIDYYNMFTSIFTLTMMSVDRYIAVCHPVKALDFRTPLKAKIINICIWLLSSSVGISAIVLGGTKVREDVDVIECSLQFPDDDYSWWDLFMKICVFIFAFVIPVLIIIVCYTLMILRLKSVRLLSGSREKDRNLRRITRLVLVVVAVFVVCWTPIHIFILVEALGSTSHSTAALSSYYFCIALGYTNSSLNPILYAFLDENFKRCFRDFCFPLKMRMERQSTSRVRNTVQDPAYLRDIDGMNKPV
# CXCR3, sequence (P49682 5-368 limits assumed): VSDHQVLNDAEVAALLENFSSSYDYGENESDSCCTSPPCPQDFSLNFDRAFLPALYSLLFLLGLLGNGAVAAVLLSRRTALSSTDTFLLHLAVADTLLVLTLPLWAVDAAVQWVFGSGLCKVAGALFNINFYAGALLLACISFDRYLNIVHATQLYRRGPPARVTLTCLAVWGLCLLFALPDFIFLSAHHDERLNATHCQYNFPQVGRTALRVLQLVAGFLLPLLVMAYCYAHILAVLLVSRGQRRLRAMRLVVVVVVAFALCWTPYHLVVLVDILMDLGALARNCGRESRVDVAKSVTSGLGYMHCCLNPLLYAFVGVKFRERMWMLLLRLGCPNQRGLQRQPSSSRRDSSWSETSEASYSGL
compound,measurement,setting,value
"CXCL12: C—X—C motif chemokine 12, endogenous ACKR3 chemokine ligand",DMR response of CXCR4-expressing U87 cells,[1],strong DMR
same,"ERK phosphorylation, cells stably expressing CXCR4",[2],strong increase in ERK phosphorylation
"dynorphin A 1-13: endogenous opioid peptide, fragment of dynorphin A (YGGFLRRIRPKLK) [reference compound]",accumulation of the labelled peptide by smNPCs,[3],able to accumulate
same,uptake of the fluorescently labelled peptide by ACKR3-expressing cells (also versus classical opioid receptor),[4],more efficient compared to that of KOR
Cy-5-labelled LIH383: fluorescently labelled LIH383 (LIH383-Cy5),binding to native or CXCR4-expressing U87 cells,[5],not to native or CXCR4-expressing U87 cells
big dynorphin: the precursor of dynorphin A and B,β-arrestin recruitment to CXCR3,[6],faint induction of β-arrestin recruitment
same,β-arrestin recruitment to CX3CR1,[7],faint induction of β-arrestin recruitment
same,β-arrestin recruitment to CCR3,[8],faint induction of β-arrestin recruitment
same,β-arrestin recruitment to ACKR3: agonist activity/potency in words,[9],at low concentrations comparable to their activity on the classical opioid receptors
BAM18: opioid peptide previously reported as ACKR3 ligand (YGGFMRRVGRPEWWMDYQ),ability to induce β-arrestin-2 recruitment to ACKR3 (library screening),[10],capable of inducing β-arrestin-2 recruitment to ACKR3
CO/C1=C\C(C)=C\[C@@H](C)[C@@H](O)[C@@H](C)C/C(C)=C/C=C/[C@H](OC)[C@@H]([C@@H](C)[C@@H](O)[C@H](C)[C@@]2(O)C[C@@H](O)[C@H](C)[C@@H](C(C)C)O2)OC1=O [bafilomycin A1],surface levels of KOR following stimulation with opioid peptides,[11],no effect on surface levels of KOR
BAM22: proenkephalin-derived opioid peptide,EC50,[12],23.5 nM
